Where a SMILES comes first, the peptide text is derived from it.
Legend:
[1] = Blood clearance studies; type: in vivo; conditions: mouse, i.v. tail vein
Procedure: ^99mTc-labeled HYNIC/DOMA conjugated peptide analogs (1 mCi, 0.2 mL) were administered to well-hydrated mouse (n = 3) through tail vein and blood samples (20 μL each) were collected at preset time intervals (2, 5, 15, 30, 60, 90, and 120 min) in the tube. Each sample was weighed accurately, and associated radioactivity was counted in a gamma counter. The percentage injected activities per gram (%IA/g) in each blood sample at each time were determined, and the data were plotted as a function of the time interval to obtain the blood clearance curve of the radiopharmaceuticals.

[2] = physchem; type: physicochemical; conditions: pH 7.4
Summary of the method: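 HPLC-purified 99mTc-labeled peptides were shaken 2 min at room temperature between 1 mL n-octanol and 1 mL PBS (0.025 M, pH 7.4), then centrifuged to separate the phases. Each phase was γ-counted. logD was derived as log10 of the background-corrected octanol/buffer cpm ratio.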

[3] = in vitro; type: in vitro ADME; conditions: rat, serum
Summary of the method: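 ^99mTc tracer incubated in fresh rat serum at 37 °C for 1 h, proteins precipitated with 10% trichloroacetic acid and centrifuged. Binding % = precipitate counts / (precipitate + supernatant counts) × 100; run in triplicate.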

Compound `CCCC[C@H](NC(=O)[C@@H](Cc1ccc(O)cc1)NC(=O)[C@H](Cc1c[nH]cn1)NC(=O)[C@H]1CCCN1C(=O)[C@@H](NC(=O)[C@H](C)NC(=O)[C@H](Cc1c[nH]c2ccccc12)NC(=O)[C@H](CCC(N)=O)NC(=O)CCCNC(=O)CN1CCNCCNCCNCC1)C(C)C)C(N)=O` [99mTc-BN4, ^99mTc-DOMA-GABA-[Pro^11Tyr^13Nle^14]-BN(7-14)NH2, metal not drawn] (HELM PEPTIDE1{[O=C(CN1CCNCCNCCNCC1)[*:2]].[O=C(CCCN[*:1])[*:2]].Q.W.A.V.[dP].H.[dY].[Nle].[am]}$$$$V2.0) has a t1/2 in blood [1] of 30 min, a logD [2] of -2.7 and a fraction unbound at 1 h [3] of 0.809.

Reference: article PMC6423188, “HYNIC and DOMA conjugated radiolabeled bombesin analogs as receptor-targeted probes for scintigraphic detection of breast tumor” (EJNMMI Research, 2019)
